In article PMC5762779, “The peroxisomal AAA-ATPase Pex1/Pex6 unfolds substrates by processive threading” (Nature Communications, 2018):

Legend:
Settings in all cases: both partners purified
[1] = biological target: T1, Pex1-FLAG/His-Pex6 hexamer, wild type (S. cerevisiae, UniProt P24004 1-1043; P33760 1-1030); assay: inhibition of ATPase activity (ATP/NADH coupled enzyme assay); apparent KD from the concentration-dependent inhibition of the ATPase activity of 5 nM Pex1/Pex6 by titrated Pex15; 5 mM ATP, 2 uM BSA; n = 3 technical replicates
T1 construct: Pex1, S. cerevisiae W303; Pex6, S. cerevisiae W303; Heterohexamer with alternating subunits; also called WT Pex1/Pex6; Pex1/Pex6; source: E. coli BL21*, co-expressed, purified (Ni-NTA, anti-FLAG, Superose6); copies: 3 + 3
T1 sequence (P24004 whole entry, chain 1 of 2, one chain of several): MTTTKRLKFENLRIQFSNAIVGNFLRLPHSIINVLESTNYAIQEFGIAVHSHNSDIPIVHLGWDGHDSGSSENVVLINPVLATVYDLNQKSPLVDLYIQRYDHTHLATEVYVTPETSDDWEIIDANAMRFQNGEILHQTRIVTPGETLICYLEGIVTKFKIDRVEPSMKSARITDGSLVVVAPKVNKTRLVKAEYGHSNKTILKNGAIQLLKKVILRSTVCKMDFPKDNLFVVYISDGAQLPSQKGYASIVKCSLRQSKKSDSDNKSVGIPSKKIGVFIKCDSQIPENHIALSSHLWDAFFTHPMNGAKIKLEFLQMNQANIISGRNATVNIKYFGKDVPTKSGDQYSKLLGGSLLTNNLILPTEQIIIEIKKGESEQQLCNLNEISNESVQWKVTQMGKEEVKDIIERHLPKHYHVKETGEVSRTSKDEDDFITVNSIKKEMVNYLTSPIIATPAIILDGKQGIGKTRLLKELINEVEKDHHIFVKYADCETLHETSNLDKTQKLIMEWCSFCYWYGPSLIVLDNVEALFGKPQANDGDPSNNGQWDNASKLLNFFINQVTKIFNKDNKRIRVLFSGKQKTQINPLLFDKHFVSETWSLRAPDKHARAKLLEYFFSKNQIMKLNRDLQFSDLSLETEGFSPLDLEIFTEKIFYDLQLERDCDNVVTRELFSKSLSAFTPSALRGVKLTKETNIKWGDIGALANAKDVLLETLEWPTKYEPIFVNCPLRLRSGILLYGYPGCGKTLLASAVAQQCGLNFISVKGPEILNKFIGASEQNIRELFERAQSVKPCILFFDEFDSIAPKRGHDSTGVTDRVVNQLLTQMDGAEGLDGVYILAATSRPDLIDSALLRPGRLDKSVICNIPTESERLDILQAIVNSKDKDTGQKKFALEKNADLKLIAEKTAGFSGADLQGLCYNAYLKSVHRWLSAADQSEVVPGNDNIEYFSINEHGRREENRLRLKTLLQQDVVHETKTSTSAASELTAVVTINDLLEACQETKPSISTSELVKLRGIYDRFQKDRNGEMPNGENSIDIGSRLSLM

[2] = biological target: T2, Pex1-WB2/Pex6-WB2 mutant hexamer (Pex1-E798Q-Strep/His-Pex6-E832Q) (S. cerevisiae, UniProt P24004 1-1043; P33760 1-1030, E798Q | E832Q); assay: HDX-MS; 3 uM Pex15 1-309 and 100 nM Pex1-WB2/Pex6-WB2 hexamer in D2O buffer (60 mM HEPES pD 7.6, 50 mM NaCl, 50 mM KCl, 10% glycerol, 10 mM MgCl2, 0.5 mM EDTA, 5 mM ATP); 15 s deuteration, with and without saturating Pex15
T2 construct: Pex1, S. cerevisiae W303, Walker B D2 mutant; Pex6, S. cerevisiae W303, Walker B D2 mutant; also called Pex1-WB/Pex6-WB; ATPase-deficient Pex1/Pex6; source: E. coli BL21*, co-expressed, purified (Ni-NTA, Streptactin); copies: 3 + 3
T2 sequence (P24004 whole entry E798Q, chain 1 of 2): as the sequence (P24004 whole entry, chain 1 of 2, one chain of several) above, with E798Q counted along it
T2 sequence (P33760 whole entry E832Q, chain 2 of 2): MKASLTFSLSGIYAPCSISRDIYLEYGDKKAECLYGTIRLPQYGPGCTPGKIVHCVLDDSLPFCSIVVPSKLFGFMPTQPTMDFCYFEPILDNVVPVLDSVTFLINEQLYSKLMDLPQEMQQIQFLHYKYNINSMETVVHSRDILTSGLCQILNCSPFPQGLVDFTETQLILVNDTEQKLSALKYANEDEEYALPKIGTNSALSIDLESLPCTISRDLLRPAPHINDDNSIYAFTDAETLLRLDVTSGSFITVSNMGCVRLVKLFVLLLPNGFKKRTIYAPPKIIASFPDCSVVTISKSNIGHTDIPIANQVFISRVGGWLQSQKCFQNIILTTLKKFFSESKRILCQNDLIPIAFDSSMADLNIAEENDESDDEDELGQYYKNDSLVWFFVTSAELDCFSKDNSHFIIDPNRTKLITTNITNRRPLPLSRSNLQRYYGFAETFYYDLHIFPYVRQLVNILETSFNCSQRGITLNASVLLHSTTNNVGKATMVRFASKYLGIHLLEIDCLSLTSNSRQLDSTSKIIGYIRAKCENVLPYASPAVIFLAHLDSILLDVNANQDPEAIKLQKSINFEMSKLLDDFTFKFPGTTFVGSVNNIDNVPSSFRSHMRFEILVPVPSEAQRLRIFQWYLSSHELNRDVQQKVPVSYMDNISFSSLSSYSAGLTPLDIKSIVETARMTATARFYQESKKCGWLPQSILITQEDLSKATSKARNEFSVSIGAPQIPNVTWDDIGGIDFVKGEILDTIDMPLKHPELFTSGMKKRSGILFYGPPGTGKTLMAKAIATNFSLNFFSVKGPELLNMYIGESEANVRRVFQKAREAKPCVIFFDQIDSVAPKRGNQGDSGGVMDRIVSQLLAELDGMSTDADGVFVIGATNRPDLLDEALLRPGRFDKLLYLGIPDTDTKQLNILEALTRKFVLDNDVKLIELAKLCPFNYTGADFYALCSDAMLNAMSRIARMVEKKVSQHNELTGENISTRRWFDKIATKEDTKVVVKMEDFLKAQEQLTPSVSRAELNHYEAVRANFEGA

[3] = biological target: T1, Pex1-FLAG/His-Pex6 hexamer, wild type; assay: inhibition of ATPase activity (ATP/NADH coupled enzyme assay); apparent KD from the concentration-dependent inhibition of the ATPase activity of 5 nM Pex1/Pex6 by titrated Pex15; 5 mM ATP, 2 uM BSA; n = 3 technical replicates; remark: listed apart in the source
[4] = biological target: T3, Pex1-FLAG/His-Pex6 (V245A, T246A) hexamer (S. cerevisiae, UniProt P24004 1-1043; P33760 1-1030, V245A | T246A); assay: as above
T3 construct: Pex1, S. cerevisiae W303; also called Pex1/Pex6-VT:AA; Pex6 VT:AA; source: E. coli BL21*, co-expressed, purified (Ni-NTA, anti-FLAG, Superose6); copies: 3 + 3
T3 sequence (P24004 whole entry, chain 1 of 2): as the sequence (P24004 whole entry, chain 1 of 2, one chain of several) above
T3 sequence (P33760 whole entry V245A/T246A, chain 2 of 2): as the sequence (P33760 whole entry E832Q, chain 2 of 2) above, with V245A, T246A, Q832E counted along it

His-Pex6-FLAG = biological target: T4, His-Pex6-FLAG (S. cerevisiae, UniProt P33760 1-1030); assay: pull-down; 1 uM MBP-Pex15 1-327-FLAG-His on magnetic amylose resin with 0.5 uM Pex1-Strep/His-Pex6 hexamer, His-Pex1-FLAG, His-Pex6-FLAG or 5 uM His-Pex6 1-215; 1 h, 4 °C, 60 mM HEPES pH 7.6, 150 mM NaCl, 150 mM KCl, 10% glycerol, 0.05% Tween-20, 10 mM MgCl2, 0.5 mM EDTA, 5 mM ATP; maltose elution; SYPRO-Ruby or anti-His blot
T4 construct: Pex6, S. cerevisiae W303, purified individually; not shown: His, N-terminal, kept; FLAG, C-terminal, kept
T4 sequence (looked up): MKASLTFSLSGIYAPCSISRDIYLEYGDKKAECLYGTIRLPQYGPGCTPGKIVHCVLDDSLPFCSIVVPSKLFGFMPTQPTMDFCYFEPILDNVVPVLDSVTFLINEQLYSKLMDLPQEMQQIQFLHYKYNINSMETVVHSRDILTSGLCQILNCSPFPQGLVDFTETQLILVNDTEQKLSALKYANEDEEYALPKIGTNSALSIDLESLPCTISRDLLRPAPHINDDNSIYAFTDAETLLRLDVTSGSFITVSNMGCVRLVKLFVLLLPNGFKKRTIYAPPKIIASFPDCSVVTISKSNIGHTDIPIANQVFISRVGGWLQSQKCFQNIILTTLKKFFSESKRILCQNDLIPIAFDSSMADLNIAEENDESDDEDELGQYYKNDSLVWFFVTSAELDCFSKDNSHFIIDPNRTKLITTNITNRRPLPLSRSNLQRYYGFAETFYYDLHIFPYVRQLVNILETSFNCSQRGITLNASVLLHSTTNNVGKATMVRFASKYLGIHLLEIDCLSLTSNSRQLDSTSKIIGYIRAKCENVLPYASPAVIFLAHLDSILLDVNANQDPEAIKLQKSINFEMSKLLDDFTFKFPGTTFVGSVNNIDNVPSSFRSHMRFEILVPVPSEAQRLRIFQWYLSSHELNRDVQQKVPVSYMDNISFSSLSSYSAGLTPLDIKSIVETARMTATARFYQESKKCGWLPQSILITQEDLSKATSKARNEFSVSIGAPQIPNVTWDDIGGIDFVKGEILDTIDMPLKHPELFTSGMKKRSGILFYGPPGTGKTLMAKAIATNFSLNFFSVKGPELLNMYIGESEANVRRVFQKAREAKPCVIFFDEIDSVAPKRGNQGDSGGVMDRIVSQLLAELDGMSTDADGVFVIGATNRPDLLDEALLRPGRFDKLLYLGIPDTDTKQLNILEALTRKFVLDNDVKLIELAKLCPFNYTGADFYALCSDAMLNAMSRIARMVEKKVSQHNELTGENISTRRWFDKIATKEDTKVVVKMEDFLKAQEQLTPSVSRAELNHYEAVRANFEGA

fluorescein labeled Pex5 = biological target: T5, fluorescein labeled Pex5 (S. cerevisiae, UniProt P35056 1-612, fluorescein (FAM) on a GGGK peptide joined by sortase at the C-terminal LPETGG site); assay: pull-down; MBP-Pex6/Pex1 or MBP-Pex15 1-327 on magnetic amylose resin with Pex5-FAM; same conditions as Figure 7B (350 nM Pex5-FAM, 1 h, 4 °C, 60 mM HEPES pH 7.6, 150 mM NaCl, 150 mM KCl, 10% glycerol, 0.05% Tween-20, 10 mM MgCl2, 0.5 mM EDTA, 5 mM ATP); maltose elution; Pex5 seen by its fluorescein
T5 construct: Pex5, S. cerevisiae W303; after labelling the chain ends LPET-GGGK-FAM; also called Pex5-FAM; source: E. coli BL21*, purified (Ni-NTA, anti-FLAG, Superdex 200), labelled with sortase and GGGK-FAM peptide; not shown: His6, C-terminal, cleaved
T5 sequence (looked up): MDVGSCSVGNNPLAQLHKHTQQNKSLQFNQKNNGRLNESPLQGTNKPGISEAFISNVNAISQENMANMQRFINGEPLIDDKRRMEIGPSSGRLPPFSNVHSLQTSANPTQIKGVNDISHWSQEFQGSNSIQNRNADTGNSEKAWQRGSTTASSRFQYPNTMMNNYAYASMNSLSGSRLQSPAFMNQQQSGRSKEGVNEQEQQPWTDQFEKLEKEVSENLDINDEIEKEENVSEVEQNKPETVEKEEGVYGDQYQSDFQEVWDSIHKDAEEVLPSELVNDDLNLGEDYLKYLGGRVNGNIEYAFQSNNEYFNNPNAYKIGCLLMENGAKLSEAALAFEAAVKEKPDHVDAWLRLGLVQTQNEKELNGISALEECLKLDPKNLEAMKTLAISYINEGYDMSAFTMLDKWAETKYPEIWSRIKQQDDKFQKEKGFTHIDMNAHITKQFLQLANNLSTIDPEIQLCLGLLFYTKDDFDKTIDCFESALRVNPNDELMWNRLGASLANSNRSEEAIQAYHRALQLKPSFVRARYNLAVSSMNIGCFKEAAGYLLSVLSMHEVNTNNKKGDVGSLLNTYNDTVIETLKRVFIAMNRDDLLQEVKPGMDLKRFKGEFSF

[5] = biological target: T6, fluorescein-labeled Pex5 (Pex5-FAM) (S. cerevisiae, UniProt P35056 1-612, fluorescein-conjugated peptide GGGK-FAM joined by sortase at the LPETGG site at the C-terminus); assay: pull-down; 2 μM MBP-Pex15 1-327 on magnetic amylose resin with 350 nM Pex5-FAM, with or without 1 μM Pex1-WB2/Pex6-WB2 and 100 μM SKL peptide, 1 h, 4 °C, 60 mM HEPES pH 7.6, 150 mM NaCl, 150 mM KCl, 10% glycerol, 0.05% Tween-20, 10 mM MgCl2, 0.5 mM EDTA, 5 mM ATP; eluted with 20 mM maltose; Pex5 seen by its fluorescein
T6 construct: Pex5, S. cerevisiae W303 coding region, followed by a sortase site (LPETGG) upstream of the C-terminal 6xHis tag; Likely derived from FLAG-Pex5-His, so an N-terminal FLAG tag may be present; After sortase the C-terminus should read LPET-GGGK(FAM); source: E. coli BL21*, purified, sortase-labelled, Ni-NTA flow-through, Superdex 200 increase; not shown: His6, C-terminal, cleaved
T6 sequence (looked up): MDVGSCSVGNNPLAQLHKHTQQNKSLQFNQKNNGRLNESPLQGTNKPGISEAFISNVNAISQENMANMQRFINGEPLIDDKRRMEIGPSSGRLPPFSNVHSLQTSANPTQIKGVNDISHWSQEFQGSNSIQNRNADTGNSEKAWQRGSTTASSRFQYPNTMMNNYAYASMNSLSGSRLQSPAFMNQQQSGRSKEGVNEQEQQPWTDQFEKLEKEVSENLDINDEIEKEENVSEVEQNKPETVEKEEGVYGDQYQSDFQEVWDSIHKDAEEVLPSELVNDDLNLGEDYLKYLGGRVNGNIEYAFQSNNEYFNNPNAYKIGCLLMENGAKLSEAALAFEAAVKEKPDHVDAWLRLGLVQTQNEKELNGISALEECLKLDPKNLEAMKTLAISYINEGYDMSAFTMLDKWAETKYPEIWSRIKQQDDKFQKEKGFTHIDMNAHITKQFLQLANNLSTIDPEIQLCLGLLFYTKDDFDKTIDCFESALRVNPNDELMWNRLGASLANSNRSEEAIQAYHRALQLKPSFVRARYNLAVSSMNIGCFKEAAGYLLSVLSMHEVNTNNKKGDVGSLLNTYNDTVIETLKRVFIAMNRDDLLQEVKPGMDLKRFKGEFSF

[6] = biological target: T7, Pex1-FLAG/His-Pex6 hexamer, wild type (S. cerevisiae, UniProt P24004 1-1043; P33760 1-1030); assay: negative-stain EM reconstruction; 20 nM Pex1-FLAG/His-Pex6 mixed with 200 nM Pex15, 5 min on ice, 5 mM ATP; 3D reconstruction at 23.2 Å
T7 construct: Pex1, S. cerevisiae W303 coding region; Pex6, S. cerevisiae W303 coding region; also called Pex1/Pex6; wild-type Pex1/Pex6; source: E. coli BL21*, co-expressed, purified (Ni-NTA, anti-FLAG, Superose6); not shown: FLAG, C-terminal, kept; His6, N-terminal, kept; copies: 3 + 3
T7 sequence (P24004 whole entry, chain 1 of 2, one chain of several): as the sequence (P24004 whole entry, chain 1 of 2, one chain of several) above

B1: Pex15 1-309 (cytosolic domain) (domain or fragment, S. cerevisiae, UniProt Q08215 1-309, looked up)
chain: MAASEIMNNLPMHSLDSSLRDLLNDDLFIESDESTKSVNDQRSEVFQECVNLFIKRDIKDCLEKMSEVGFIDITVFKSNPMILDLFVSACDIMPSFTKLGLTLQSEILNIFTLDTPQCIETRKIILGDLSKLLVINKFFRCCIKVIQFNLTDHTEQEEKTLELESIMSDFIFVYITKMRTTIDVVGLQELIEIFIFQVKVKLHHKKPSPNMYWALCKTLPKLSPTLKGLYLSKDVSIEDAILNSIDNKIQKDKAKSKGKQRGVKQKIHHFHEPMLHNSSEEQVKVEDAFNQRTSTDSRLQSTGTAPRKK
notes: likely here too; source: E. coli BL21*, purified (Ni-NTA, tag cleaved with PreScission protease, Superdex 200); not shown: His, C-terminal, cleaved
- Kd [1]: 580 nM
- binding result [2]: binds
- Kd [3]: 580 ± 180 nM
- Kd [4]: 1980 ± 580 nM

B2: MBP-Pex15 1-327-FLAG-His (domain or fragment, S. cerevisiae, UniProt Q08215 1-327, looked up)
chain: MAASEIMNNLPMHSLDSSLRDLLNDDLFIESDESTKSVNDQRSEVFQECVNLFIKRDIKDCLEKMSEVGFIDITVFKSNPMILDLFVSACDIMPSFTKLGLTLQSEILNIFTLDTPQCIETRKIILGDLSKLLVINKFFRCCIKVIQFNLTDHTEQEEKTLELESIMSDFIFVYITKMRTTIDVVGLQELIEIFIFQVKVKLHHKKPSPNMYWALCKTLPKLSPTLKGLYLSKDVSIEDAILNSIDNKIQKDKAKSKGKQRGVKQKIHHFHEPMLHNSSEEQVKVEDAFNQRTSTDSRLQSTGTAPRKKNNDITVLAGSFWAVLKHH
notes: Pex15, S. cerevisiae W303, cytosolic domain, residues 1-327; Held on magnetic amylose resin by its MBP; not shown: MBP, N-terminal, kept; FLAG, C-terminal, kept; His, C-terminal, kept
- binding result (His-Pex6-FLAG): binds
- binding result (fluorescein labeled Pex5): binds

B3: MBP-Pex15 1-327-FLAG-His (domain or fragment, S. cerevisiae, UniProt Q08215 1-327, looked up)
chain: MAASEIMNNLPMHSLDSSLRDLLNDDLFIESDESTKSVNDQRSEVFQECVNLFIKRDIKDCLEKMSEVGFIDITVFKSNPMILDLFVSACDIMPSFTKLGLTLQSEILNIFTLDTPQCIETRKIILGDLSKLLVINKFFRCCIKVIQFNLTDHTEQEEKTLELESIMSDFIFVYITKMRTTIDVVGLQELIEIFIFQVKVKLHHKKPSPNMYWALCKTLPKLSPTLKGLYLSKDVSIEDAILNSIDNKIQKDKAKSKGKQRGVKQKIHHFHEPMLHNSSEEQVKVEDAFNQRTSTDSRLQSTGTAPRKKNNDITVLAGSFWAVLKHH
notes: Pex15, S. cerevisiae W303, cytosolic domain residues 1-327; not shown: MBP, N-terminal, kept; FLAG, C-terminal, kept; His, C-terminal, kept
- binding result [5]: binds

B4: Pex15 cytosolic domain (aa 1-327), as used for negative-stain EM (domain or fragment, S. cerevisiae, UniProt Q08215 1-327, looked up)
chain: MAASEIMNNLPMHSLDSSLRDLLNDDLFIESDESTKSVNDQRSEVFQECVNLFIKRDIKDCLEKMSEVGFIDITVFKSNPMILDLFVSACDIMPSFTKLGLTLQSEILNIFTLDTPQCIETRKIILGDLSKLLVINKFFRCCIKVIQFNLTDHTEQEEKTLELESIMSDFIFVYITKMRTTIDVVGLQELIEIFIFQVKVKLHHKKPSPNMYWALCKTLPKLSPTLKGLYLSKDVSIEDAILNSIDNKIQKDKAKSKGKQRGVKQKIHHFHEPMLHNSSEEQVKVEDAFNQRTSTDSRLQSTGTAPRKKNNDITVLAGSFWAVLKHH
notes: Pex15, S. cerevisiae W303, cytosolic domain residues 1-327; also called Pex15 cytosolic portion; source: E. coli BL21*, purified (Ni-NTA, Superdex 200); not shown: His, C-terminal, cleaved
- stoichiometry N [6]: 3 Pex15 per Pex1/Pex6 hexamer
